Measured values from paper PMC2836074 (The Journal of Biological Chemistry, 2009).

Key:
[1] = molecular target: EGFP-F1LΔBH1 (vaccinia virus strain Copenhagen, UniProt P68450 1-226, lacks amino acids 144–156); test: co-IP
[2] = molecular target: EGFP-F1LΔBH3 (vaccinia virus strain Copenhagen, UniProt P68450 1-226, lacks amino acids 93–108); test: co-IP

B1: HA-Bak (natural protein)
chain: MASGQGPGPPRQECGEPALPSASEEQVAQDTEEVFRSYVFYRHQQEQEAEGVAAPADPEMVTLPLQPSSTMGQVGRQLAIIGDDINRRYDSEFQTMLQHLQPTAENAYEYFTKIATSLFESGINWGRVVALLGFGYRLALHVYQHGLTGFLGQVTRFVVDFMLHHCIARWIAQRGGWVAALNLGNGPILNVLVVLGVVLLGQFVVRRFFKS
With B1 the “fold decrease in Bak binding compared with wild-type F1L” value [1] was 8 fold and the “fold decrease in Bak binding compared with wild-type F1L” value [2] was 3 fold.
